Numbering of substitutions follows the chain as printed.
Assays:
[1] = molecular target: T1, human EGFRvIII protein on the surface of U87MG-hEGFRvIII cells (human, UniProt P00533 25-1210); assay: cell-based or functional assay
[2] = molecular target: T2, human EGFRvIII-hFc protein (human, UniProt P00533 25-645); assay: ELISA, coated EGFRvIII-hFc, antibody 0.001 nM
T2 construct: extracellular domain; made in HEK293 cells, purified on protein A; also called immunogen A; hFc-tagged EGFRvIII protein; not shown: human IgG Fc fragment (hFc) of the pCpC vector
Description: (§1) The purified immunogen A (EGFRvIII-hFc) obtained in example 1 (for the preparation method, see step (I) in example 1) is diluted with PBS to a final concentration of 1.0 μg/mL, and then added to a 96-well ELISA plate at 100 μl/well. The plate is sealed with a plastic film and incubated at 4° C. overnight. The next day, the plate is washed twice with a plate washing solution [PBS+0.01% (v/v) Tween20], and added with a blocking solution [PBS+0.01% (v/v) Tween20+1% (w/w) BSA] for blocking 2 hours at room temperature. The blocking solution is discarded, and the purified EGFRvIII antibody obtained in example 2 is added at 100 μl/well. The plate is incubated for 2 hours at 37° C., and then washed 3 times with the plate washing solution [PBS+0.01% (v/v) Tween20]. The plate is added with an HRP (horseradish peroxidase) labeled secondary antibody (purchased from Sigma), incubated at 37° C. for 2 hours, and then washed 3 times with the plate washing solution [PBS+0.01% (v/v) Tween20]. The plate is added with 100 μl of TMB substrate/well, incubated for 30 minutes at room temperature, and then added with 100 μl of stopping solution (1.0N HCl)/well. A450 nm value is read using an ELISA plate reader (SpectraMax 384plus, purchased from Molecular Device), and the results are shown in FIG. 6 and table 10.

[3] = molecular target: T2, human EGFRvIII-hFc protein; assay: ELISA, coated EGFRvIII-hFc, antibody 0.0001 nM
Description: as §1

[4] = molecular target: T2, human EGFRvIII-hFc protein; assay: ELISA, coated EGFRvIII-hFc, antibody 0.01 nM
Description: as §1

[5] = molecular target: T2, human EGFRvIII-hFc protein; assay: ELISA, coated EGFRvIII-hFc, antibody 1 nM
Description: as §1

[6] = molecular target: T2, human EGFRvIII-hFc protein; assay: ELISA, coated EGFRvIII-hFc, antibody 0.1 nM
Description: as §1

[7] = molecular target: T2, human EGFRvIII-hFc protein; assay: ELISA, coated EGFRvIII-hFc, antibody 100 nM
Description: as §1

[8] = molecular target: T2, human EGFRvIII-hFc protein; assay: ELISA, coated EGFRvIII-hFc, antibody 10 nM
Description: as §1

[9] = molecular target: T1, human EGFRvIII protein on the surface …; assay: FACS on U87MG-hEGFRvIII cells
Description: The cells are washed twice with the HBSS buffer and are counted, and then the cells are diluted with the HBSS buffer to 2×10⁶ cells/ml, added with 1% goat serum blocking solution, with the percentage being the mass percentage, and incubated on ice for 30 minutes, and then centrifugally washed twice with the HBSS buffer. The collected cells are suspended to 2×10⁶ cells/mL with an FACS buffer (HBSS+1% BSA, with the percentage being the mass percentage), added to a 96-well FACS reaction plate at 100 μL/well, then added with 100 μL/well of the purified EGFRvIII antibody (samples to be tested) obtained in example 2, and incubated on ice for 2 hours. The plate is centrifugally washed twice with the FACS buffer, added with 100 μL/well of a fluorescence (Alexa 488) labeled secondary antibody (purchased from Invitrogen), and then incubated on ice for 1 hour. The plate is centrifugally washed 3 times with the FACS buffer, added with 100 μL/well of a fixing solution [4% (v/v) paraformaldehyde] for suspending the cells, and centrifugally washed twice with the FACS buffer after 10 minutes. The cells are suspended in 100 μL of the FACS buffer, and the results are detected and analyzed by FACS (FACS Calibur, purchased from BD). Data analysis is performed by using the software (CellQuest) to obtain the mean fluorescence intensity (MFI) of the cells. Data is further analyzed by using the software (GraphPad Prism5) to perform data fitting and calculate EC50. […] A431 cells (human epidermal cell cancer cell lines) have a large amount of wild-type EGFR protein expressed on the surface thereof. […] U87MG cells (human glioma cell lines) have a small amount of wild-type EGFR protein expressed on the surface thereof, while HEB cells (human glioma cell lines) have a high level of wild-type EGFR protein expression on the surface thereof.

B1: Murine anti-63A10-MMAF (antibody, V domains shown)
VH: QVQLQQSGAELARPGASVKMSCKASGYTFISFTMHWVKQRPGQGLEWIGYINPNSGYTKYNQKFKDKATLTAGQSSSTAYMQLSSLTSEDSAVYYCTRGGGRGFAYWGQGTLVTVSA
VL: DILMTQSPSSMSVSLGDTVTITCHASQDINSNIGWLQQKPGKSFKALIYHGTNLEDGVPSRFSGSGSGADYSLTISSLESEDFADYYCVQYAQFPFTFGSGTKLEIK
- IC50, cell killing of U87MG-hEGFRvIII cells (CellTiter-Glo) [1]: 0.01 nM

B2: Murine anti-43H6-MMAF (antibody, V domains shown)
VH: INAEYAGGPGLVKPSQSLSLTCTVTDYSITSDYAWNWIRQFPGNKLEWMGYISYSGNTNYNPSLKSRISITRDTSKNQFFLQLNSVTTEDTATYYCARLGRGFAYWGQGTLVTVSA
VL: B1 VL with T20S, K42T, A46G, T52R, A69E, Q93H, F96P, S100A, I106L
- IC50, cell killing of U87MG-hEGFRvIII cells (CellTiter-Glo) [1]: 0.01 nM

B3: Murine anti-64F1-MMAF (antibody, V domains shown)
VH: B1 VH with I30S, F32Y, V37A, N54S, G73D, Q74K, A92I, T97A
VL: QIVLTQSPAIMSASPGERVTMTCSASSSVSYMYWYQQKPGSSPRLLIYDTSNLASGVPVRFSGSGSGTSYSLTISRVEAEDAATYYCQQWSSYSLTFGAGTKLELK
- IC50, cell killing of U87MG-hEGFRvIII cells (CellTiter-Glo) [1]: 0.01 nM

B4: Murine anti-63A10 (antibody, V domains shown)
VH: B1 VH
VL: B1 VL
notes: murine hybridoma antibody; also called 63A10A7
- OD450 nm [2]: 0.09
- OD450 nm [3]: 0.08
- OD450 nm [4]: 0.17
- OD450 nm [5]: 3.42
- OD450 nm [6]: 0.8
- OD450 nm [7]: 3.71
- OD450 nm [8]: 3.76

B5: Murine anti-53D8-MMAF (antibody, V domains shown)
VH: B1 VH with I30T, F32Y, N54S, K63I, G73D, Q74K
VL: B1 VL with T20S, A46G
- IC50, cell killing of U87MG-hEGFRvIII cells (CellTiter-Glo) [1]: 0.04 nM

B6: Murine anti-64B11-MMAF (antibody, V domains shown)
VH: EVQLQQSGAELVKPGASVKLSCTASGFNIKDYYMHWVKQRTEQGLEWIGRIDPEDGETKYAPKFQGKATITADTSSNTAYLQLSNLPSEDTAVYYCGCRTGGFAYWGQGTLVTVSA
VL: B1 VL with T20S, D28G, K103E
- IC50, cell killing of U87MG-hEGFRvIII cells (CellTiter-Glo) [1]: 0.04 nM

B7: Murine anti-64F1 (antibody, V domains shown)
VH: B1 VH with I30S, F32Y, V37A, N54S, G73D, Q74K, A92I, T97A
VL: B3 VL
notes: murine hybridoma antibody; also called 64F1F8
- OD450 nm [2]: 0.09
- OD450 nm [3]: 0.08
- OD450 nm [4]: 0.16
- OD450 nm [5]: 3.51
- OD450 nm [6]: 1
- OD450 nm [7]: 3.73
- OD450 nm [8]: 3.76

B8: Murine anti-43H6 (antibody, V domains shown)
VH: B2 VH
VL: B1 VL with T20S, K42T, A46G, T52R, A69E, Q93H, F96P, S100A, I106L
notes: Mouse hybridoma antibody; also called 43H6A1
- EC50 [9]: 4 nM

B9: Murine anti-56F10-MMAF (antibody, V domains shown)
VH: B6 VH with Y32F, N85S, P87T
VL: B3 VL with R18K, M32L, R44S, V77M, S92R, Y93N, S94P, L95W, A99G, L105I
- IC50, cell killing of U87MG-hEGFRvIII cells (CellTiter-Glo) [1]: 0.15 nM

B10: Murine anti-59G3-MMAF (antibody, V domains shown)
VH: DVQLQESGPGLVKPSQSLSLTCSVTGYSITSGYYWHWIRQFPENKLEWMGYISYDGSNIYNPSLKNRISITRDTSKNQFFLKLNSVTTEDTATYYCAINSDYALDYWGQGTSVTVSS
VL: B3 VL with R18K, V77M
- IC50, cell killing of U87MG-hEGFRvIII cells (CellTiter-Glo) [1]: 0.06 nM

B11: Murine anti-46C4-MMAF (antibody, V domains shown)
VH: EVHLQQSVAELVRPGASVKLSCTASGFNIKNTYMHWVKQRPEQGLEWIGRIDPANGNTKYAPKFQGKATITADTSSNTAYLQLSSLTSEDTAIYYCASDFDYWGQGTTLTVSS
VL: DVLMTQTPLSLPVSLGDQVSISCRSSQSIVNSNGNTHLEWYLQKPGQSPKVLIYKVSKRFSGVPDRFSGSGSGTDFTLKISRVEAEDLGVYYCFQGSHVPYTFGGGTKLEIK
- IC50, cell killing of U87MG-hEGFRvIII cells (CellTiter-Glo) [1]: 0.15 nM

B12: Murine anti-49G12-MMAF (antibody, V domains shown)
VH: EVQLLQSGAELVKPGASVKLSCTASGFNIKDYYMHWVKQRTEQGLEWIGRIDPEDGETKYAPKFQGKATMTADTSSNTAYLQLSSLTSEDTAVYYCASSAYYGRNYWGQGTTLTVSS
VL: QIVLTQSPAIMSASPGEKVTLTCSASSSLSSSYLYWYQQKPGSSPKLWIYSTSNLASGVPARFSGSGSGTSYSLTISSMEAEDAASYFCHQWSSYPYTFGGGTKLEIK
- IC50, cell killing of U87MG-hEGFRvIII cells (CellTiter-Glo) [1]: 0.02 nM

B13: Murine anti-7E5-MMAF (antibody, V domains shown)
VH: EIQLQQSGPELVKPGASVKVSCKASGYSFTDYNMYWVKQSHGKSLEWIGYVDPSNGGTNYNQKFKGKATLTVDKSSSTAFMHLNSLTSEDSAVYYCARGFFDYWGQGTTLTVSS
VL: DIVMTQSPSSLTVTAGEKVTMSCKSSQSLLNSGNQKNYLTWYQQKPGQPPKLLIYWASNRESGVPDRFTGSGSGKDFTLTISSVQAEDLAVYYCQNDYRYPVTFGAGTKLELK
- IC50, cell killing of U87MG-hEGFRvIII cells (CellTiter-Glo) [1]: 0.02 nM

B14: Murine anti-75G7-MMAF (antibody, V domains shown)
VH: EVQLQQSGPELVKPGASVKIPCKASGYTFTDYNMDWVKQSHGKSLEWIGDINPNNGDTIYNQKFKGKATLTVDKSSSTAYMELRSLTSEDTAVYYCARGDYDGYYPVYYAMDYWGQGTSVTVSS
VL: ENVLTQSPAIMSASPGEKVTMTCRASSSVSSSYLHWYQQKSGASPKLWIFSTSNLAAGVPARFSGSGSGTSYSLTVSSVEAEDAATYYCQQYSGYPLTFGAGTKLELK
- IC50, cell killing of U87MG-hEGFRvIII cells (CellTiter-Glo) [1]: 0.27 nM
